Publication PMC10309188

Experiments:
Experiment in all cases: SPR
[1] = target: MR1 E76Q E149Q refolded with 5-FSA, biotinylated (SPR) (UniProt Q95460)
[2] = target: MR1 E76Q E149Q refolded with 6-FP, biotinylated (SPR) (UniProt Q95460)
[3] = target: wildtype MR1 refolded with 5-F-SA, biotinylated (SPR) (UniProt Q95460)
[4] = target: wildtype MR1 refolded with 6-FP, biotinylated (SPR) (UniProt Q95460)

Measured: Kd

AF-7 TCR
> 150 µM: all assays above
